Reference: patent publication US20250152746A1, “BASE EDITING OF ANGPTL3 AND METHODS OF USING SAME FOR TREATMENT OF DISEASE” (Verve Therapeutics, Inc., priority 2020, published 2025)
In the oligonucleotide strings, read from the 5' end, every base follows the letter of its sugar. An asterisk marks phosphorothioate; unmarked linkages are phosphodiester. Other units and linkages are bracketed, terminal groups are in braces. A string of capitals states the bases alone. m = 2'-O-methyl; r = 2'-OH (RNA)

System: PCSK9 gene
Experiment: PCSK9 gRNA/SpCas9 editing in primary cynomolgus hepatocytes (Tables 2, 22)
Assay type: cell-based, cynomolgus monkey
Description: In set of experiments, PCSK9 gRNAs were co-transfected with an equivalent amount (1:1 ratio by weight) of in vitro transcribed commercially available SpCas9 mRNA MS002 purchased from TriLink Biotechnologies into primary human hepatocytes at 2500, 500, or 100 ng/RNA/mL and processed as described in detailed methods. Extracted genomic DNA was analyzed for gene editing at the target site with next-generation sequencing of PCR amplicons generated around the target sites. Samples were prepared using the Nextera XT DNA library preparation kit (Illumina) according to the manufacturer's protocol. Briefly, two rounds of PCR were performed first to amplify the region of interest and second to add DNA sequences required for next generation sequencing and sample identification to the initial product. The final amplicon was sequenced on the Illumina MiSeq instrument according to the manufacturer's protocol. A wide range of editing activities (Table 2) were observed. In a second set of experiments, ANGPTL3 gRNAs were co-transfected with an equivalent amount of in vitro transcribed SpCas9 mRNA (1:1 ratio by weight) into primary human hepatocytes and processed and analyzed similarly (Table 3).
[…] Genomic DNA was processed, sequenced, and analyzed as described in the detailed methods section. GA266 was transfected independently twice to serve as two positive controls.
Plating, culturing, and transfection of primary hepatocytes. Primary human liver hepatocytes (PHH) and primary cynomolgus liver hepatocytes (PCH) from BioIVT were cultured per the manufacturer's protocol. Briefly, primary human hepatocytes and primary cyno hepatocytes were obtained as frozen aliquots from BioIVT. Four lots of primary human hepatocytes, each derived from a de-identified individual donor, were used for the experiments: STL (main donor) was used for all experiments, including screening experiments and off-target experiments; HLY, JLP, and TLY were used for off-target experiments. The HFG lot of primary cyno hepatocytes were used for experiments. Following the manufacturer's instructions, cells were thawed and rinsed prior to plating in 24-well plates that had been coated with bovine collagen overnight, with a density of approximate 350,000 cells/well in INVITROGRO hepatocyte medium supplemented with TORPEDO antibiotic mix (BioIVT). The cells were thawed and resuspended in hepatocyte thawing medium followed by centrifugation at 100 g for 10 min at 4° C. The supernatant was discarded, and the pelleted cells resuspended in hepatocyte plating medium. Each vial contains approximately 5 million cells that were used for plating one 24-well plate. Plated cells were allowed to settle and adhere for 4-6 h in a tissue culture incubator at 37° C. under 5% CO2 atmosphere. After incubation, cells were checked for monolayer formation. The incubating media were then replaced with fresh hepatocyte maintenance media (complete INVITROGRO medium obtained from BioIVT, the cell line provider). The cells thus became ready for transfection. Each of the gRNAs were co-transfected with an equivalent amount of in vitro transcribed ABE8.8 mRNA (1:1 ratio by molecular weight) into primary human hepatocytes via MessengerMax reagent (Lipofectamine), using various dilutions to assess for editing activity at different concentrations of test article. MessengerMAX from Thermo Fisher is used for transfection. Solution A: desired amount of guide RNA is mixed with 1:1 wt ratio of mRNA in OptiMEM. Solution B: MessengerMAX in OptiMEM. After mixing solutions A and B, the mixture was incubated at room temperature for 20 min. 60 μL of the incubated solution was added dropwise to each cell wells. For protospacer sequences that were a perfect match to the corresponding cynomolgous monkey PCSK9 or ANGPTL3 gene sequence, each gRNA was also co-transfected with an equivalent amount of ABE8.8 mRNA (1:1 ratio by molecular weight) into primary cynomolgous hepatocytes, and followed the same transfection protocol. […]

[1] = SpCas9 mRNA MS002, 625 ng/test article/mL, rep1
[2] = SpCas9 mRNA MS002, 625 ng/test article/mL, rep2
[3] = SpCas9 mRNA MS002, 1250 ng/test article/mL, rep1
[4] = SpCas9 mRNA MS002, 1250 ng/test article/mL, rep2
[5] = SpCas9 mRNA MS002, 2500 ng/test article/mL, rep1
[6] = SpCas9 mRNA MS002, 2500 ng/test article/mL, rep2

B1: GA408 (nucleic acid)
guide: mU*mC*mA*rGrCrUrCrCrArGrGrCrGrGrUrCrCrUrGrGmGrUrUrUrUrArGmAmGmCmUmAmGmAmAmAmUmAmGmCmAmArGrUrUmArAmArAmUrAmAmGmGmCmUmArGrUmCmCrGrUrUrAmUmCrArAmCmUmUmGmAmAmAmAmAmGmUmGrGmCmAmCmCmGmAmGmUmCmGmGmUmGmCmU*mU*mU*mUmUrUmU
With B1 the “Cynomolgus Primary Hepatocytes-% Editing” value [1] was 36.7%, the “Cynomolgus Primary Hepatocytes-% Editing” value [2] was 37.14% and the “Cynomolgus Primary Hepatocytes-% Editing” value [3] was 47.21%. For the same molecule, the “Cynomolgus Primary Hepatocytes-% Editing” value [4] was 49.8%, the “Cynomolgus Primary Hepatocytes-% Editing” value [5] was 50.4% and the “Cynomolgus Primary Hepatocytes-% Editing” value [6] was 46.92%.

B2: GA402 (nucleic acid)
guide: mU*mC*mA*rGrCrUrCrCrArGrGrCrGrGrUrCrCrUrGrGmGrUrUrUrUrArGmAmGmCmUmArGmAmAmAmUmAmGmCmAmArGrUrUmArAmArAmUrAmAmGmGmCmUmArGrUmCmCrGrUrUrAmUmCrArAmCmUmUrGmAmAmAmAmAmGmUmGrGmCmAmCmCmGmAmGmUmCmGmGmUmGmCmU*mU*mU*mUmUrUmU
B2 was tested, and the “Cynomolgus Primary Hepatocytes-% Editing” value [1] was 35.05%, the “Cynomolgus Primary Hepatocytes-% Editing” value [2] was 40.31% and the “Cynomolgus Primary Hepatocytes-% Editing” value [3] was 44.46%. The “Cynomolgus Primary Hepatocytes-% Editing” value [4] was 47.93%, the “Cynomolgus Primary Hepatocytes-% Editing” value [5] was 45.58% and the “Cynomolgus Primary Hepatocytes-% Editing” value [6] was 55.34%.

B3: GA401 (nucleic acid)
guide: mU*mC*mA*rGrCrUrCrCrArGrGrCrGrGrUrCrCrUrGrGmGrUrUrUrUrArGmAmGmCmUmAmGmAmAmAmUmAmGmCmAmArGrUrUmArAmArAmUrAmAmGmGmCmUmArGrUmCmCrGrUrUrAmUmCrArAmCmUmUmGmAmAmAmAmAmGmUmGrGmCmAmCmCmGmAmGmUmCmGmGmUmGmCmU*mU*mU*mUmUmUmU
In the case of B3, the “Cynomolgus Primary Hepatocytes-% Editing” value [1] is reported as 38.33%, the “Cynomolgus Primary Hepatocytes-% Editing” value [2] is reported as 38.77% and the “Cynomolgus Primary Hepatocytes-% Editing” value [3] is reported as 49.12%. For the same molecule, the “Cynomolgus Primary Hepatocytes-% Editing” value [4] was 48.83%, the “Cynomolgus Primary Hepatocytes-% Editing” value [5] was 53.74% and the “Cynomolgus Primary Hepatocytes-% Editing” value [6] was 52.79%.

B4: GA406 (nucleic acid)
guide: TCAGCTCCAGGCGGTCCTGGGTTTTAGAGCTAGAAATAGCAAGTTAAAATAAGGCTAGTCCGTTATCAACTTGAAAAAGTGGCACCGAGTCGGTGCTTTTTTT
modifications: listed as RNA; modified_base 1: mod_base = OTHER; note = 2'-O-Methyl-uridine phosphorothioate; modified_base 2: mod_base = OTHER; note = 2'-O-Methyl-cytidine phosphorothioate; modified_base 3: mod_base = OTHER; note = 2'-O-Methyl-adenosine phosphorothioate;
With B4 the “Cynomolgus Primary Hepatocytes-% Editing” value [1] was 37.58%, the “Cynomolgus Primary Hepatocytes-% Editing” value [2] was 40.31% and the “Cynomolgus Primary Hepatocytes-% Editing” value [3] was 45.11%. For the same molecule, the “Cynomolgus Primary Hepatocytes-% Editing” value [4] was 43.68%, the “Cynomolgus Primary Hepatocytes-% Editing” value [5] was 57.17% and the “Cynomolgus Primary Hepatocytes-% Editing” value [6] was 51.45%.

B5: GA403 (nucleic acid)
guide: mU*mC*mA*rGrCrUrCrCrArGrGrCrGrGrUrCrCrUrGrGmGrUrUrUrUrArGmAmGmCmUmArGmAmAmAmUmAmGmCmAmArGrUrU*mArAmArAmUrAmAmGmGmCmUmArGrUmCmCrGrUrUrAmUmCrArAmCmUmUrGmAmAmAmAmAmGmUmGrGmCmAmCmCmGmAmGmUmCmGmGmUmGmCmU*mU*mU*mUmUrUmU
For B5, the “Cynomolgus Primary Hepatocytes-% Editing” value [1] was 38.28%, the “Cynomolgus Primary Hepatocytes-% Editing” value [2] was 35.58% and the “Cynomolgus Primary Hepatocytes-% Editing” value [3] was 50.5%. The “Cynomolgus Primary Hepatocytes-% Editing” value [4] was 47.13%, the “Cynomolgus Primary Hepatocytes-% Editing” value [5] was 52.62% and the “Cynomolgus Primary Hepatocytes-% Editing” value [6] was 55.84%.

B6: GA399 (nucleic acid)
guide: mU*mC*mA*rGrCrUrCrCrArGrGrCrGrGrUrCrCrUrGrGmGrUrUrUrUrArGmAmGmCmUmAmGmAmAmAmUmAmGmCmAmArGrUrUmArAmArAmUrAmAmGmGmCmUmArGmUrCmCrGrUrUmAmUmCrArAmCmUmUmGmAmAmAmAmAmGmUmGmGmCmAmCmCmGmAmGmUmCmGmGmUmGmCmU*mU*mU*mUmUmUmU
B6 was tested, and the “Cynomolgus Primary Hepatocytes-% Editing” value [1] was 37.75%, the “Cynomolgus Primary Hepatocytes-% Editing” value [2] was 41.8% and the “Cynomolgus Primary Hepatocytes-% Editing” value [3] was 55.55%. The “Cynomolgus Primary Hepatocytes-% Editing” value [4] was 53.02%, the “Cynomolgus Primary Hepatocytes-% Editing” value [5] was 58.97% and the “Cynomolgus Primary Hepatocytes-% Editing” value [6] was 62.75%.

B7: GA404 (nucleic acid)
guide: mU*mC*mA*rGrCrUrCrCrArGrGrCrGrGrUrCrCrUrGrGmGrUrUrUrUrArGmAmGmCmUmArGmAmAmAmUmAmGmCmAmArGrUrUmArAmArAmUrAmAmGmGmCmUmArGrUmCmCrGrUrU*rAmUmCrArAmCmUmUrGmAmAmAmAmAmGmUmGrGmCmAmCmCmGmAmGmUmCmGmGmUmGmCmU*mU*mU*mUmUrUmU
In the case of B7, the “Cynomolgus Primary Hepatocytes-% Editing” value [1] is reported as 31.63%, the “Cynomolgus Primary Hepatocytes-% Editing” value [2] is reported as 30.16% and the “Cynomolgus Primary Hepatocytes-% Editing” value [3] is reported as 41.68%. The “Cynomolgus Primary Hepatocytes-% Editing” value [4] was 35.04%, the “Cynomolgus Primary Hepatocytes-% Editing” value [5] was 48.3% and the “Cynomolgus Primary Hepatocytes-% Editing” value [6] was 50.59%.
